Reference: the supplement of paper PMC10126150
± gives the standard deviation of the averaged measurements.

System: ATP
Test: switch fluorescence ratio, 500 uM ATP over buffer (Cy3 cluster intensity, sum of 5 cycles each) (fold (ratio)); higher = stronger signal-on switching upon ATP binding; sequences stand for … in TCGTCGGCAGCGTCAGATGTGTATAAGAGACAGTTTTTTTTTTTTTTTTTTTTTTTTT…TC
Conditions: aptamer strand: ATP DNA aptamer (quencher-CACCTGGGGGAGTATTGCGGAGGAAGG + anchor), 100 nM annealed; ATP concentration: 500 uM
In short: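 Switching-strand clusters labelled with Cy3 on a modified Illumina MiSeq flow-cell were annealed to 100 nM quencher-labelled ATP aptamer, imaged in selection buffer, and re-imaged after 15 min with 500 uM ATP at 22 °C. This was done over five cycles with NaOH stripping and re-annealing in between. The fluorescence ratio is summed target-cycle over summed buffer-cycle Cy3 intensity per cluster, averaged per switch-domain sequence, excluding clusters outside 100-1000 RFU.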
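Note: ATP exposure 15 min at 22 °C before imaging.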

Point of comparison: AGGGGGTTGG, switch fluorescence ratio 1 ± 0.032. Against it:
- ATGTCGACAC — within error, 0.976 ± 0.02
- AGTTAGACGA — within error, 1.01 ± 0.013
- CAGGAGCATT — higher, 3.09 ± 1.5
- GTTTTCAGCG — within error, 1.01 ± 0.022
- GAGTCCAGGC — within error, 1.07 ± 0.16
- ATGTGCTGCG — within error, 0.993 ± 0.031
- AATATCTGAC — higher, 1.18 ± 0.046
- ACTTGGGATG — within error, 0.982 ± 0.037
- TTCTGGAAAA — within error, 1.05 ± 0.064
- AATAATGGGG — within error, 0.981 ± 0.049
- GGAGGAGGGG — the same, 1 ± 0.023
- ACTCGGGGTT — within error, 0.998 ± 0.04
- GAACCGTGTT — within error, 0.967 ± 0.036
- TGTGGCGGTT — within error, 1.015 ± 0.0077
- CCTCGGTGCG — within error, 1.02 ± 0.0087
- CATTTCAACC — within error, 1.019 ± 0.0021
- TGTATTTAGA — within error, 1.02 ± 0.032
- TAAAAGGCAT — within error, 1.03 ± 0.028
- ACTACCTTAC — higher, 3.15 ± 0.077
- GGGGATTGAT — within error, 1.02 ± 0.039
- TACTCACGAA — higher, 1.42 ± 0.027
- GAGAGTGGGG — within error, 0.985 ± 0.037
- TTTATGGGGT — within error, 1.01 ± 0.028
- TTGAGGGTTC — within error, 0.96 ± 0.022
- CGGGCTTCTA — within error, 1.04 ± 0.053
- GCAATGAACC — higher, 1.84 ± 0.078
- GTTGGATGTA — within error, 1.011 ± 0.008
- CAGGAGAGGG — within error, 1.02 ± 0.029
- GAGGTGTAGA — within error, 1.05 ± 0.022
- TAGTTCGTTG — within error, 0.9799 ± 0.0081
- GGGAGGGTTT — within error, 0.98 ± 0.022
- TTCGCTGGTA — within error, 1.15 ± 0.22
- TGGCGGCATG — within error, 1.01 ± 0.06
- GCGAGGGGTG — within error, 1.02 ± 0.048
- CATGTCAGGA — within error, 1.02 ± 0.018
- GTGGATGGGA — within error, 0.977 ± 0.015
- TTTCTGTGAT — the same, 1.004 ± 0.003
- TAAGTATAGT — within error, 1.0211 ± 0.00015
- GGATAAACGG — within error, 1.03 ± 0.082
- GGGACAGGGA — within error, 1.05 ± 0.066
- TTTATGGTGG — within error, 1.01 ± 0.013
- ACTGTTTTTA — within error, 0.9849 ± 0.004
- TGCAAGAGTG — within error, 1.03 ± 0.011
- GGATTAATTG — within error, 0.996 ± 0.037
- TTCCAGATTC — within error, 0.964 ± 0.013
- GTCCATTTTG — within error, 1.01 ± 0.064
- GGATGTATAA — within error, 1.01 ± 0.028
- GGATGGGTAA — within error, 1.01 ± 0.039
- GTGTTTTAAA — the same, 1 ± 0.037
- CGTGGCTGGT — within error, 0.996 ± 0.013
- TATGACATGG — within error, 0.959 ± 0.011
- CCGGGGAATG — within error, 1.04 ± 0.052
- GGCTTTGTGG — within error, 0.992 ± 0.02
- ATTGTTATTT — within error, 1.02 ± 0.018
- TTAAAGTCAT — within error, 1.007 ± 0.0072
- TTTACGGTCA — within error, 1.04 ± 0.039
- TATAAGACAT — within error, 1.03 ± 0.038
- TTTTGGTTTC — within error, 1.05 ± 0.11
- GCTGGTGGGT — within error, 0.988 ± 0.012
- GGGTATGCAA — the same, 1.001 ± 0.0093
- TATTGTTTTG — within error, 0.986 ± 0.033
- CGGGTTGGGC — higher, 1.07 ± 0.027
- GTGAAGAGGG — within error, 0.9977 ± 0.0056
- TAGGGGGCAC — the same, 1 ± 0.025
- ACCTGGACCT — higher, 1.33 ± 0.032
- TCAGGGTCTT — within error, 1.01 ± 0.011
- AAAAGTTTTG — within error, 1.01 ± 0.011
- TACTAGAGCG — within error, 1.03 ± 0.04
- TGTATCATGT — within error, 0.99 ± 0.037
- TAGTAACGGT — within error, 0.996 ± 0.053
- AGTGGCGTTC — within error, 1.01 ± 0.073
- ATTGTATTGT — within error, 0.987 ± 0.03
- CCTAACTAAA — within error, 0.995 ± 0.028
- AGAGGTACAC — the same, 1 ± 0.021
- TTTGGGTTGA — within error, 1.03 ± 0.017
- CGTGCATCGA — within error, 1.0092 ± 0.00045
- GCGGTCCCCG — higher, 1.11 ± 0.031
- GTCGGAAGGG — within error, 1.01 ± 0.032
- TAATCAAAGT — within error, 1.02 ± 0.018
- GTTGCTGTGG — within error, 0.985 ± 0.026
- CGTGGGTGTT — lower, 0.946 ± 0.015
- AGGCTTAATC — within error, 0.9903 ± 0.0069
- CGGGGCGGCG — within error, 0.986 ± 0.002
- CTAATGAGTT — within error, 0.999 ± 0.03
- CGGTCGGGAT — lower, 0.9606 ± 0.0031
- GTCGACAGGT — within error, 0.987 ± 0.031
- CAAGTGCTTG — within error, 1.03 ± 0.014
- TCGGCGAGGG — within error, 0.977 ± 0.021
- TTAATAGTC — higher, 1.05 ± 0.0041
- TGTTTTATAA — within error, 0.995 ± 0.024
- TATCTAGAGG — within error, 1.01 ± 0.022
- TCCAGTTGCT — within error, 1.02 ± 0.033
- TCGGGGGAAG — within error, 1.01 ± 0.038
- CTTGGGTTGC — within error, 0.9961 ± 0.0092
- AGGTTCTGGG — within error, 1.01 ± 0.03
- GTATGTTGCG — lower, 0.96532 ± 0.00026
- GAGGGGTGTC — within error, 0.978 ± 0.03
- GATGTCGTGG — within error, 1.015 ± 0.0089
- TGCTGTACGA — higher, 1.11 ± 0.012
- CGGGGGTTTT — within error, 0.994 ± 0.034
- TTGTGTTACG — within error, 0.996 ± 0.047
- AAGCGCTGTG — within error, 1.03 ± 0.047
- TCGGTAGCAG — higher, 1.092 ± 0.01
- TCGGGTCGTA — within error, 1.02 ± 0.019
- GGTGTAACAG — within error, 0.991 ± 0.012
- GCGGCGTGTC — within error, 1.028 ± 0.0083
- ATATTAGTTA — within error, 0.997 ± 0.05
- GTCGGTACTT — within error, 0.996 ± 0.012
- GAAAGGGGTT — within error, 1.02 ± 0.035
- TCAGGTTCGT — within error, 0.987 ± 0.01
- AGAATGAGGT — within error, 0.98 ± 0.03
- TTAGGGCGAC — the same, 1 ± 0.044
- TGGTGACCGT — the same, 1 ± 0.025
- TATATCGTC — within error, 1.19 ± 0.31
- TATACCGCGA — higher, 2.49 ± 0.29
- TTATGGGAAA — within error, 1.02 ± 0.023
- GGAAGATGTG — within error, 1.02 ± 0.016
- TCGAATATGT — within error, 0.986 ± 0.025
- GCTTTGGGAA — within error, 1.03 ± 0.04
- ACCAGTAGGT — within error, 1.01 ± 0.035
- TTCCTTTAGG — within error, 0.98 ± 0.06
- GGCTAAAACT — within error, 1.01 ± 0.015
- CCTTTCGTGT — within error, 1.19 ± 0.22
- ATAACTTTTT — within error, 0.992 ± 0.054
- GGAAAATTTA — within error, 0.963 ± 0.059
- TCGATCTTTT — within error, 1.24 ± 0.4
- GAGGTCCACT — within error, 1.01 ± 0.044
- GTTTGCGGGC — lower, 0.947 ± 0.0066
- TGGGGTAATC — within error, 1.03 ± 0.07
- TGATATACTG — within error, 0.968 ± 0.026
- TAGGGCGGTT — within error, 0.98 ± 0.046
- TTTGAAGTGT — within error, 0.997 ± 0.02
- GTAATACGTG — higher, 1.14 ± 0.041
- AACCGTCACA — higher, 1.202 ± 0.0059
- CCTCTATTCA — higher, 1.06 ± 0.019
- CCCATGCGTT — within error, 1.03 ± 0.063
- CAAATGGGGG — within error, 0.985 ± 0.015
- GTATGAGGCG — within error, 0.981 ± 0.04
- GTGTGAGTTG — within error, 0.961 ± 0.022
- TCTGGTTAGT — within error, 1.01 ± 0.066
- TTTTCACGCA — higher, 1.57 ± 0.53
- TCTGGGGGT — within error, 0.949 ± 0.02
- AAAGGTTATC — within error, 1.018 ± 0.0098
- TTATGTGAGA — within error, 1.01 ± 0.044
- TTGCATGTTG — within error, 0.9886 ± 0.0033
- GGGCTTGGCG — within error, 1.0275 ± 0.00013
- CTTCTCTATC — within error, 1.01 ± 0.027
- CCGGGGAGGA — higher, 1.06 ± 0.026
- GTTGTATGTA — the same, 1 ± 0.049
- TTGATCGTGC — within error, 1.12 ± 0.18
- GTGTTTAAA — within error, 0.962 ± 0.014
- GGCTAGGGGG — within error, 1.01 ± 0.022
- AGGAGTGGCG — within error, 0.97841 ± 0.00086
- ATCGCTGGGA — within error, 0.972 ± 0.02
- GAGGGGAAAA — within error, 0.99 ± 0.04
- AGAGTACTCG — higher, 1.05 ± 0.0048
